# Assay results as given in publication PMC2504289.
# T1: CH1° 0p (unphosphorylated C-terminal domain of histone H1°) (UniProt P10922 98-194)
# T1 sequence: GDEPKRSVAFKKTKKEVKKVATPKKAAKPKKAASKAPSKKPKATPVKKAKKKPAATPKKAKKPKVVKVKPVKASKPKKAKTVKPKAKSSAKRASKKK
# B1: 50 bp dsDNA fragment (dsDNA)
# DNA 1: CTATGATATATAGATAGTTAATGTAATATGATATAGATATAGGGATCC
# DNA 2: GGATCCCTATATCTATATCATATTACATTAACTATCTATATATCATAG
# Target: T1, CH1° 0p (unphosphorylated C-terminal …)
# Assay: EMSA
binder,measurement,value
B1,binding result,binds
